Data on four molecules can be found in US20150196656A1 (IGF ONCOLOGY, published 2015).

Experiment [1] has as its target T1, type 1 IGF receptor (human, UniProt P08069 31-1367).
T1 construct: whole, on cells; also called IGF-1 receptor; IGF-1R
Put plainly: competition binding to IGF receptors against radioactive wild type IGF; approximate KD. The protocol:
200 ul of each of these was mixed rapidly with 1.8 ml of refold buffer. Refold buffer was 1.4 M urea, 100 mM glycine, 0.5 M NaCl, 19% ethanol, 0.5 mM GSSG, 4 mM GSH, pH 9.5.

For experiment [2], the target named is dihydrofolate reductase. Put plainly: cell-based or functional assay. Set-up: unit not given beside the values.

T1 sequence (P08069 31-1367): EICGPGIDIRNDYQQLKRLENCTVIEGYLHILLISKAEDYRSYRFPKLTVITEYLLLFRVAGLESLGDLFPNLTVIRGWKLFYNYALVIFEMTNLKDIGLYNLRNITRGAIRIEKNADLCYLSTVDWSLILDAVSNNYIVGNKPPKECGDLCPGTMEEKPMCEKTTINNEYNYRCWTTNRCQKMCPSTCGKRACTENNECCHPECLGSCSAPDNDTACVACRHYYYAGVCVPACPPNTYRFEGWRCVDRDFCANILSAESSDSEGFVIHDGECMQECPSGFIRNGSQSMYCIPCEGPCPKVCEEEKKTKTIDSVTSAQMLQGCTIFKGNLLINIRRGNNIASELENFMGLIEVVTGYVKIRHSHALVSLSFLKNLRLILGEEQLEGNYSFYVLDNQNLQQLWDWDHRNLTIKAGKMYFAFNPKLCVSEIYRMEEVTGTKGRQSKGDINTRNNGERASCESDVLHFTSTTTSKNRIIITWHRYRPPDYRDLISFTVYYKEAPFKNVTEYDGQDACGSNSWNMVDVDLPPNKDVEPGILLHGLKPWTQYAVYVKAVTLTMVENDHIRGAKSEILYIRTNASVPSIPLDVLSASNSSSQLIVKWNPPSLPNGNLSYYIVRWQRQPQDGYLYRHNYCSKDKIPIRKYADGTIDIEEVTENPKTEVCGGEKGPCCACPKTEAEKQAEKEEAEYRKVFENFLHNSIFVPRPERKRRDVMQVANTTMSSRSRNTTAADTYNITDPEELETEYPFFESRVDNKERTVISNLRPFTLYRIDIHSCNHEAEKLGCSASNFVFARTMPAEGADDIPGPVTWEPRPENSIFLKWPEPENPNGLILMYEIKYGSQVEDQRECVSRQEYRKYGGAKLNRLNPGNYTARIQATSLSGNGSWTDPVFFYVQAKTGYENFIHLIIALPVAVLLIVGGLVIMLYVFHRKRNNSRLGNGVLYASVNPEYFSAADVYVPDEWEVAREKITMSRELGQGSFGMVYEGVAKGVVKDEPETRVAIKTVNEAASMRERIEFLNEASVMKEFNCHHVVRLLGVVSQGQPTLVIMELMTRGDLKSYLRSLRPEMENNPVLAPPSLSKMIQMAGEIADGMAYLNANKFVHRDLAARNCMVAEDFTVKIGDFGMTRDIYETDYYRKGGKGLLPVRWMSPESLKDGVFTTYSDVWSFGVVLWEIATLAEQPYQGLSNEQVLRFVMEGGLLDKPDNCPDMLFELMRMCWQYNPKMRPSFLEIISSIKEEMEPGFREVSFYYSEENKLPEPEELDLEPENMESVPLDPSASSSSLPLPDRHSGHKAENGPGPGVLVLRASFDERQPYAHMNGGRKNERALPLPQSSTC

B1: 785IGF (ligand)
chain: MVKQIESKTAFQEALDAAGDKLVVVDFSATWCGHCKMIKPFFHSLSEKYSNVIFLEVDVDDSQDVASESEVKSMPTFQFFKKGQKVGEFSGANKEKLEATINELVGSKSGHHHHHHSAKGFVNQHLCGSHLVEALYLVCGDRGFYFNKPTGYGSSSRRAPQTGIVDECCFRSCDLRRLEMYCAPLKPAKSA
notes: also called mutTrx-IGF132
By Kd is commonly meant the constant that tells how readily two partners part at equilibrium. For the molecule B1, in experiment [1], the Kd was roughly 40 nM.

B2: LR3IGF-MTX (other)
chain: MFPAMPLSSLFVNGPRTLCGALVDALQFVCGDRGFYFNKPTGYGSSSRRAPQTGIVDECCFRSCDLRRLEMYCAPLKPAKSEA
modifications: methotrexate attached to amino groups; MTX:protein ratio of 2.8
In the case of B2, the “IC50 (inhibition of dihydrofolate reductase)” value in experiment [2] is 99.

B3: 764IGF (ligand)
chain: MVKGKHHHHHHNGKGKSKFVNQHLCGSHLVEALYLVCGDRGFYFNKPTGYGSSSRRAPQTGIVDECCFRSCDLRRLEMYCAPLKPAKSA
notes: also called His6-K5-IGF132
For B3, the Kd in experiment [1] is roughly 100 nM.

B4: 403IGF (ligand)
chain: MTSGHHHHHHSAGVNGFVNQHLCGSHLVEALYLVCGDRGFYFNKPTGYGSSSRRAPQTGIVDECCFRSCDLRRLEMYCAPLKPAKSA
notes: also called His6-IGF
As to B4, in experiment [1], the Kd is roughly 2 nM.
